In assay [1] the target is E5-tagged FcγRIIIa V158, produced in CHO cells (human). Kind of assay: SPR. For orientation: Surface plasmon resonance follows binding to a sensor surface in real time, without labels.
Assay [2] has as its target E5-tagged Fcγ receptor IIIa, V158 variant (human). Put plainly: SPR.

The values that follow come from article PMC9040152.

Sequence of E5-tagged Fcγ receptor IIIa, V158 variant (human) (P08637 17-208, change not shown): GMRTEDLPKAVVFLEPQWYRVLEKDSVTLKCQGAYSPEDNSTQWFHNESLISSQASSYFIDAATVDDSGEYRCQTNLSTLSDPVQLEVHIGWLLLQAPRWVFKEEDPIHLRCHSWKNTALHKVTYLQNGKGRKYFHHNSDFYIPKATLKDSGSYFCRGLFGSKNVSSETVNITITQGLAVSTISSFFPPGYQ
Sequence of E5-tagged FcγRIIIa V158, produced in CHO cells (human) (P08637 17-208): as the sequence (P08637 17-208, change not shown) above

Broadly, the Kd is the constant that tells how readily two partners part at equilibrium. A lower Kd goes with a tighter complex. As to “Trastuzumab co-expressed with β4GT1 and RMD, in vitro α2,6-sialylated (antibody)”, the dissociation constant Kd in assay [1] came out at 32 nM.

“Trastuzumab co-expressed with β1,4-galactosyltransferase 1 (TZM GT) (antibody)” displayed a fold increase in affinity upon digalactosylation, relative to TZM in assay [2] of 2 fold.
